According to the supplement of paper PMC7877785:
± gives the uncertainty stated by the source.

Assay: self-splicing fitness, log relative to wild type (ln ratio); higher = more splicing; Tetrahymena group I intron in knt gene, E. coli kanamycin selection, DiMSum; sequences stand for … in CUCUCU…GGAGGGAAAAGUUAUCAGGCAUGCACCUGGUAGCUAGUCUUUAAACCAAUAGAUUGCAUCGGUUUAAAAGGCAAGACCGUCAAAUUGCGGGAAAGGGGUCAACAGCCGUUCAGUACCAAGUCUCAGGGGAAACUUUGAGAUGGCCUUGCAAAGGGUAUGGUAAUAAGCUGACGGACAUGGUCCUAACCACGCAGCCAAGUCCUAAGUCAACAGAUCUUCUGUUGAUAUGGAUGCAGUUCACAGACUAAAUGUCGGUCGGGGAAGAUGUAUUCUUCUCAUAAGAUAUAGUCGGACCUCUCCUUAAUGGGAGCUAGCGGAUGAAGUGAUGCAACACUGGAGCCGCUGGGAACUAAUUUGUAUGCGAAAGUAUAUUGAUUAGUUUUGGAGUACUCGUGGUCG
Summary of the method: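 The eight P1ex-region nucleotides of an intron in the knt kanamycin-resistance gene on pET-22b(+) were all randomised and the library put into E. coli BL21(DE3). Six replicate transformations were grown overnight at 37°C or 30°C on LB agar with or without 25 μg/mL kanamycin, together with 100 μg/mL carbenicillin, 50 μM IPTG and 0.2% rhamnose. Colonies were pooled and amplicon-sequenced on an Illumina HiSeq 2500. Fitness from DiMSum is the error-weighted combination of wild-type-normalised replicate fold changes, kanamycin over none.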

Sequence	self-splicing fitness (ln) (30 °C)	self-splicing fitness (ln) (37 °C)
CUGCAGCAAUAUUACGUUUG	-2.61 ± 0.094	-0.958 ± 0.098
AACGAGCAAUAUUACGAGUU	-3.48 ± 0.32	-2.1 ± 0.22
CCGUAGCAAUAUUACGGGCC	-3.55 ± 0.25	-2.83 ± 0.32
CUCGAGCAAUAUUACGUGUU	-2.06 ± 0.16	-1.97 ± 0.19
CCAAAGCAAUAUUACGGUGA	-3.77 ± 0.25	-4.04 ± 0.34
CACUAGCAAUAUUACGUCCU	-2.36 ± 0.13	-1.24 ± 0.18
UCAAAGCAAUAUUACGAUUG	-2.46 ± 0.14	-0.73 ± 0.11
AUCCAGCAAUAUUACGCCCC	-0.216 ± 0.11	0.691 ± 0.19
ACCAAGCAAUAUUACGGGAC	-4.08 ± 0.14	-2.05 ± 0.12
GUUUAGCAAUAUUACGACGU	-0.531 ± 0.1	0.347 ± 0.14
AUAGAGCAAUAUUACGGGUA	-2.89 ± 0.16	-2.53 ± 0.24
AUGGAGCAAUAUUACGUCUC	-1.83 ± 0.28	-1.89 ± 0.37
CCCGAGCAAUAUUACGGUAU	-3.43 ± 0.22	-3.01 ± 0.4
CGGCAGCAAUAUUACGGGUA	-3.66 ± 0.25	-2.84 ± 0.19
GCCCAGCAAUAUUACGCUAG	-3.11 ± 0.18	-2.34 ± 0.17
GUGAAGCAAUAUUACGUGCA	0.391 ± 0.085	-0.0531 ± 0.11
GCUCAGCAAUAUUACGGAUC	-0.0202 ± 0.09	-0.0789 ± 0.11
CCGUAGCAAUAUUACGGCGG	-4.06 ± 0.3	-2.97 ± 0.26
GCAUAGCAAUAUUACGCAAU	-2.37 ± 0.11	-1.77 ± 0.12
UUUUAGCAAUAUUACGUUGU	-2.65 ± 0.18	-2.13 ± 0.24
UAACAGCAAUAUUACGUGUU	-3.78 ± 0.14	-2.34 ± 0.12
CGAAAGCAAUAUUACGGUUC	-3.34 ± 0.16	-2.33 ± 0.17
GUACAGCAAUAUUACGCGUG	-2 ± 0.061	-1.42 ± 0.072
CAUAAGCAAUAUUACGCUGC	-3.86 ± 0.21	-3.23 ± 0.3
UCACAGCAAUAUUACGGUCU	-1.01 ± 0.081	-1.67 ± 0.11

Sequence	self-splicing fitness (ln) (30 °C)	self-splicing fitness (ln) (37 °C)
CUCAAGCAAUAUUACGUAGA	-3.23 ± 0.1	-1.53 ± 0.11
CUUCAGCAAUAUUACGUUCU	-4.03 ± 0.33	-2.26 ± 0.2
GACGAGCAAUAUUACGACAC	-3.03 ± 0.49	-1.55 ± 0.15
UAAAAGCAAUAUUACGCAAC	-4.54 ± 0.34	-2.13 ± 0.21
UGAGAGCAAUAUUACGUGCG	-1.95 ± 0.13	-1.42 ± 0.15
AUUUAGCAAUAUUACGGUGA	-1.17 ± 0.27	-1.7 ± 0.19
AGGUAGCAAUAUUACGGUAG	-3.883 ± 0.03	-2.99 ± 0.042
AAUGAGCAAUAUUACGUCCU	-1.45 ± 0.13	-0.218 ± 0.12
UUUGAGCAAUAUUACGCUGA	-2.58 ± 0.34	
AAAGAGCAAUAUUACGAUGU	-2.08 ± 0.17	-1.37 ± 0.23
UAAUAGCAAUAUUACGGCAU	-3.26 ± 0.18	-2.28 ± 0.23
AAGUAGCAAUAUUACGUCUC	-1.59 ± 0.12	-0.405 ± 0.14
CCCUAGCAAUAUUACGGGAU	-3.82 ± 0.21	-3.12 ± 0.26
UUAUAGCAAUAUUACGCCUA	-1.55 ± 0.15	0.273 ± 0.2
GCAUAGCAAUAUUACGCCUA	-1.83 ± 0.13	-1.39 ± 0.12
CCAUAGCAAUAUUACGUACC	-3.95 ± 0.47	-2.21 ± 0.36
UCUAAGCAAUAUUACGAUCC	-3.87 ± 0.39	-2.5 ± 0.36
AAUUAGCAAUAUUACGUACU	-0.151 ± 0.089	0.263 ± 0.13
CAUUAGCAAUAUUACGGAAA	-3.86 ± 0.47	-2.52 ± 0.3
AUCUAGCAAUAUUACGGCUA	-3.6 ± 0.28	-2.4 ± 0.23
UCUCAGCAAUAUUACGGGAA	-2.28 ± 0.17	-0.762 ± 0.11
AGCCAGCAAUAUUACGUUAC	-4.34 ± 0.31	-1.88 ± 0.21
AAAAAGCAAUAUUACGUUAC	-2.57 ± 0.14	-1.91 ± 0.15
CACAAGCAAUAUUACGCUGU	-3.78 ± 0.17	-2.57 ± 0.18
GUCUAGCAAUAUUACGGCCA	-1.87 ± 0.35	-0.587 ± 0.22

Sequence	self-splicing fitness (ln) (30 °C)	self-splicing fitness (ln) (37 °C)
AAGCAGCAAUAUUACGUUGU	-3.89 ± 0.12	-2.31 ± 0.11
GAGUAGCAAUAUUACGGGCG	-1.89 ± 0.12	-0.779 ± 0.12
GCGGAGCAAUAUUACGGUGG	-3.54 ± 0.35	-2.27 ± 0.39
AUCUAGCAAUAUUACGGAAA	-2.23 ± 0.2	-1.66 ± 0.18
GAUCAGCAAUAUUACGCUAU	-0.967 ± 0.24	-0.471 ± 0.15
UUAAAGCAAUAUUACGCAGA	-0.209 ± 0.11	-0.133 ± 0.13
AAGGAGCAAUAUUACGGGUU	-2.46 ± 0.23	-2.16 ± 0.28
UGUGAGCAAUAUUACGUCUU	-2.9 ± 0.29	-2.27 ± 0.3
CCCGAGCAAUAUUACGAAGG		-2.18 ± 0.23
AGUUAGCAAUAUUACGGUCC	-0.223 ± 0.14	-0.259 ± 0.19
CAACAGCAAUAUUACGAACA	-2.43 ± 0.099	-1.17 ± 0.075
ACGCAGCAAUAUUACGCGGG	-2.94 ± 0.12	-0.419 ± 0.099
ACGCAGCAAUAUUACGGCGC	-3.39 ± 0.14	-1.63 ± 0.11
AGAGAGCAAUAUUACGGAGU	-3.87 ± 0.4	-3.3 ± 0.47
CUGGAGCAAUAUUACGCGCG	-2.2 ± 0.14	-0.917 ± 0.13
GGCCAGCAAUAUUACGCUGU	-1.74 ± 0.08	-1.37 ± 0.11
UGUUAGCAAUAUUACGUGGA	-1.1 ± 0.22	-1.62 ± 0.15
AUGUAGCAAUAUUACGUGAA	-2.3 ± 0.12	-1.22 ± 0.14
UGUAAGCAAUAUUACGAUUC		-2.35 ± 0.26
AUAAAGCAAUAUUACGCUAA	-0.787 ± 0.11	-0.736 ± 0.14
CAAAAGCAAUAUUACGGGGA	-3.26 ± 0.15	-2.36 ± 0.15
UGAAAGCAAUAUUACGUACC	-1.36 ± 0.12	-1.61 ± 0.17
CGCAAGCAAUAUUACGAUGU	-1.6 ± 0.075	-0.734 ± 0.1
GACGAGCAAUAUUACGAUAG		-3.92 ± 0.46
AUAGAGCAAUAUUACGCUGG	-1.97 ± 0.14	-1.62 ± 0.2

Sequence	self-splicing fitness (ln) (30 °C)	self-splicing fitness (ln) (37 °C)
CGGGAGCAAUAUUACGAGCC	-0.749 ± 0.46	
CUACAGCAAUAUUACGCGAU	-2.35 ± 0.095	-0.252 ± 0.092
UUGUAGCAAUAUUACGUUGG	-2.77 ± 0.18	-1.98 ± 0.21
AUACAGCAAUAUUACGCGAA	-1.42 ± 0.12	-0.301 ± 0.12
GCUAAGCAAUAUUACGACGG	-1.8 ± 0.11	-1.49 ± 0.14
AGGCAGCAAUAUUACGCGUU	-2.29 ± 0.12	-0.692 ± 0.11
GCACAGCAAUAUUACGACUA	-1.17 ± 0.11	-0.702 ± 0.085
GGCCAGCAAUAUUACGCUAA	-0.606 ± 0.09	-0.303 ± 0.1
CGAUAGCAAUAUUACGAUAU	-3.53 ± 0.16	-1.47 ± 0.12
GACUAGCAAUAUUACGAGCG	-1.57 ± 0.1	-0.592 ± 0.12
CAUAAGCAAUAUUACGAACA	-3.64 ± 0.4	-2.06 ± 0.38
GAGUAGCAAUAUUACGCUUA	-1.45 ± 0.13	-0.422 ± 0.12
CGGUAGCAAUAUUACGCGGU	-3.28 ± 0.22	-2.96 ± 0.16
AACUAGCAAUAUUACGAUGU	-0.797 ± 0.082	-0.157 ± 0.12
CGCUAGCAAUAUUACGGCUA	-1.91 ± 0.31	
CAAGAGCAAUAUUACGUUUC	-3.38 ± 0.24	-2.01 ± 0.26
CCUAAGCAAUAUUACGGCUG	-3.49 ± 0.21	-2.47 ± 0.3
GUAAAGCAAUAUUACGGCCU	-0.0192 ± 0.12	0.105 ± 0.12
AGUUAGCAAUAUUACGGCAC	-1.47 ± 0.16	-1.82 ± 0.25
AGAUAGCAAUAUUACGGCUG	-0.377 ± 0.12	-0.792 ± 0.2
CGUCAGCAAUAUUACGCCUA	-2.32 ± 0.29	-0.757 ± 0.18
AUGAAGCAAUAUUACGUGAA	-1.99 ± 0.088	-0.731 ± 0.12
